Results from patent US10227575B2, “Multi-domain enzymes having cutinase activity, compositions comprising same and uses thereof” (OZYMES, priority 2015, dated 2019).
Read-outs that look alike come from different tables or passages of the source. Marks after values point to notes of the source that are not given here.

Legend:
[1] = Stability in the presence of hydrogen peroxide; assay type: physicochemical
Procedure: (§1) Esterase activity was determined by monitoring the formation of para-nitrophenol (pNP) at 410 nm from various pNP-esters using a Beckman UV spectrophotometer (model DU 640). Substrates were completely dissolved in 2-propanol (8 mM) and were then added to 50 mM Tris/HCl buffer pH 8.0 to give a final substrate concentration of 0.8 mM. The reaction (1 mL) was started by adding an appropriate amount of enzyme. One enzyme unit (U) was defined as the amount of enzyme that produced 1 μmol of product (pNP) per min; specific activity was expressed as U/mg protein. A molar extinction coefficient of 15 mM^−1 cm^−1 was used for the calculation.
Purified cutinases were incubated at room temperature in the presence of 0, 30, 100, 300, 1500, and 3000 ppm of hydrogen peroxide. Residual enzyme activity was assayed (see Example 20.1) after 1, 2, 3, and 7 days of incubation.

pH dependence of enzymes = assay type: biochemical; details: for Relative activity (%): highest activity = 100%
Procedure: The influence of different pH values (from 5.5 to 11) on the activities of the purified enzymes was examined in three buffer systems (sodium acetate, sodium phosphate, and Tris-HCl) at room temperature using pNP-palmitate (see esterase assay in Example 20.1) as a substrate at a final substrate concentration of 0.8 mM.

[2] = Enzymatic activity in the presence of organic solvents; assay type: biochemical; details: buffer only = 100%
Procedure: Enzyme activity in various organic solvents was studied over a concentration range of 1-30% at room temperature. pNP-palmitate was completely dissolved in 2-propanol (8 mM) and then added to 50 mM Tris/HCl buffer pH 8.0 containing up to 30% organic solvent to give a final substrate concentration of 0.8 mM. The reaction was started by addition of enzyme and the formation of pNP was assayed as described above in Example 20.1.

[3] = assay type: biochemical, Petromyces albertensis; details: for Residual ochratoxin A (%): 5 ppm Ochratoxin A, 37° C., relative to incubation without enzyme
Procedure: The enzymes purified in Example 18 were tested for their ability to degrade the mycotoxin Ochratoxin A. In general, the mycotoxin was incubated with different concentrations of the enzyme, and the remaining mycotoxin concentration, as well the respective degradation products, were monitored by LC-MS over time (where possible/applicable).
Reactions were performed in 1 mL volumes in glass HPLC vials comprising the mycotoxin to be analyzed and the enzyme to be tested. For Ochratoxin A (Petromyces albertensis, 01877 Sigma), 50 μL of a 100 ppm stock solution in methanol (final concentration of 5 ppm) was added to 910 μL of distilled water and 40 μL of the enzyme to be tested. In control reactions, the volume of enzyme was substituted with distilled water. The reactions were incubated in an Eppendorf thermomixer at 37° C. with shaking at 750 rpm. 100 μL samples were withdrawn at 1, 4 and 24 h for chromatographic analysis.
Mycotoxin analysis was carried out using a Shimadzu LCMS-2020 equipped with a UV/vis detector. Chromatographic separation of 10 μL injected sample was carried out at 30° C. on a Kinetex 2.6 μm XB-C18 column 100 Å (50×2.1 mm) using a binary gradient. For Ochratoxin A, eluent A consisted of water and eluent B consisted of acetonitrile and the UV detection wavelength was 360 nm.
The five enzymes tested were screened for their ability to degrade 5 ppm (5,000 ppb) Ochratoxin A at 37° C.

[4] = Enzyme substrate profiles, esterase assays; assay type: biochemical; details: highest activity towards a specific substrate set to 100%
Procedure: as §1

[5] = Activity of crude culture supernatants from bioreactor; assay type: biochemical; details: pNP-dodecanoate
[6] = Specific activity of purified enzymes (standard esterase assay); assay type: biochemical
Procedure: In summary, using different techniques for enzyme purification, pure enzyme preparations were obtained and tested for their activity towards a standard esterase substrate, pNP-palmitate. Enzymatic activities of the purified variants are summarized below:
as §1

Temperature optimum = assay type: biochemical; details: for Relative activity at temperature: highest activity set to 100%
Procedure: For estimation of the temperature optimum, buffer containing pNP-palmitate (see esterase assay in Example 20.1) was pre-incubated to reach the desired temperature, enzyme was then added, and the formation of pNP was assayed. For this experiment, Tris/HCl buffer was replaced with sodium phosphate buffer (50 mM, pH 8.0) to avoid a pH shift at the different temperatures.

B1: Am-Kr: chimeric variant: AmCUT fused to the T/P-rich linker domain and polymer binding domain of KrCUT, SEQ ID NO: 27 (protein)
chain: ACSDLEIVFARGSGEAPGLGITGTPLVSDVKSALSSASVSSYAVDYAASYDQTSAGPGATDMSNHIKSTAAACPDTKFAIGGYSQGASVTDIAIGIRTYLGTGQTIPTELAPRVVAVIAFGNPLGLYGQTIKTASPTYGPKSLEFCNRGDNVCGGTGTGPGYGHLSYARDGSVDQAAAFIAKQYNASAGTPTTPTPTPTPTPVPTTCVRDSTRDHVAADRAVSLYGRAYARGSRDSLGATSSYNVVSLQQVEGGWRLVTAC
modifications: YebF carrier; Am-Kr variant
[1]; H2O2 30 ppm, Day 0
  Relative activity (%) after exposure to hydrogen peroxide: 92 ± 3%
[1]; H2O2 30 ppm, Day 1
  Relative activity (%) after exposure to hydrogen peroxide: 90 ± 15%
[1]; H2O2 30 ppm, Day 2
  Relative activity (%) after exposure to hydrogen peroxide: 82 ± 8%
[1]; H2O2 30 ppm, Day 3
  Relative activity (%) after exposure to hydrogen peroxide: 71 ± 4%
[1]; H2O2 30 ppm, Day 7
  Relative activity (%) after exposure to hydrogen peroxide: 63 ± 5%
[1]; H2O2 100 ppm, Day 0
  Relative activity (%) after exposure to hydrogen peroxide: 101 ± 3%
[1]; H2O2 100 ppm, Day 1
  Relative activity (%) after exposure to hydrogen peroxide: 97 ± 5%
[1]; H2O2 100 ppm, Day 2
  Relative activity (%) after exposure to hydrogen peroxide: 83 ± 2%
[1]; H2O2 100 ppm, Day 3
  Relative activity (%) after exposure to hydrogen peroxide: 73 ± 5%
[1]; H2O2 100 ppm, Day 7
  Relative activity (%) after exposure to hydrogen peroxide: 69 ± 4%
[1]; H2O2 300 ppm, Day 0
  Relative activity (%) after exposure to hydrogen peroxide: 100 ± 9%
[1]; H2O2 300 ppm, Day 1
  Relative activity (%) after exposure to hydrogen peroxide: 88 ± 5%
[1]; H2O2 300 ppm, Day 2
  Relative activity (%) after exposure to hydrogen peroxide: 83 ± 2%
[1]; H2O2 300 ppm, Day 3
  Relative activity (%) after exposure to hydrogen peroxide: 72 ± 10%
[1]; H2O2 300 ppm, Day 7
  Relative activity (%) after exposure to hydrogen peroxide: 61 ± 4%
[1]; H2O2 1,500 ppm, Day 0
  Relative activity (%) after exposure to hydrogen peroxide: 91 ± 8%
[1]; H2O2 1,500 ppm, Day 1
  Relative activity (%) after exposure to hydrogen peroxide: 97 ± 9%
[1]; H2O2 1,500 ppm, Day 2
  Relative activity (%) after exposure to hydrogen peroxide: 75 ± 15%
[1]; H2O2 1,500 ppm, Day 3
  Relative activity (%) after exposure to hydrogen peroxide: 73 ± 3%
[1]; H2O2 1,500 ppm, Day 7
  Relative activity (%) after exposure to hydrogen peroxide: 60 ± 6%
[1]; H2O2 3,000 ppm, Day 0
  Relative activity (%) after exposure to hydrogen peroxide: 86 ± 6%
[1]; H2O2 3,000 ppm, Day 1
  Relative activity (%) after exposure to hydrogen peroxide: 68 ± 9%
[1]; H2O2 3,000 ppm, Day 2
  Relative activity (%) after exposure to hydrogen peroxide: 63 ± 4%
[1]; H2O2 3,000 ppm, Day 3
  Relative activity (%) after exposure to hydrogen peroxide: 67 ± 2%
[1]; H2O2 3,000 ppm, Day 7
  Relative activity (%) after exposure to hydrogen peroxide: 55 ± 3%
[1]; H2O2 3,000 ppm, Day 7, listed as Am—Kr
  Relative activity (%) after exposure to hydrogen peroxide: 55%
pH dependence of enzymes
  pH opt.: 9.5
pH dependence of enzymes; pH 6.5, sodium phosphate buffer
  Relative activity (%): 23 ± 2%
pH dependence of enzymes; pH 7.0, sodium phosphate buffer
  Relative activity (%): 46 ± 3%
pH dependence of enzymes; pH 7.5, sodium phosphate buffer
  Relative activity (%): 54 ± 3%
pH dependence of enzymes; pH 8.0, Tris/HCl
  Relative activity (%): 84 ± 2%
pH dependence of enzymes; pH 8.5, Tris/HCl
  Relative activity (%): 88 ± 9%
pH dependence of enzymes; pH 9.0, Tris/HCl
  Relative activity (%): 91 ± 5%
pH dependence of enzymes; pH 9.5, Tris/HCl
  Relative activity (%): 100* %
pH dependence of enzymes; pH 10, Tris/HCl
  Relative activity (%): 47 ± 4%
pH dependence of enzymes; pH 10.5, Tris/HCl
  Relative activity (%): 10 ± 1%
[2]; 2-Propanol 5% (v/v)
  Relative enzymatic activity (%): 70 ± 10%
[2]; 2-Propanol 10% (v/v)
  Relative enzymatic activity (%): 23 ± 2%
[2]; Acetone 1% (v/v)
  Relative enzymatic activity (%): 118 ± 1%
[2]; Acetone 5% (v/v)
  Relative enzymatic activity (%): 90 ± 14%
[2]; Acetone 10% (v/v)
  Relative enzymatic activity (%): 74 ± 7%
[2]; Dimethyl sulfoxide (DMSO) 10% (v/v)
  Relative enzymatic activity (%): 114 ± 2%
[2]; Dimethyl sulfoxide (DMSO) 20% (v/v)
  Relative enzymatic activity (%): 90 ± 8%
[2]; Dimethyl sulfoxide (DMSO) 30% (v/v)
  Relative enzymatic activity (%): 60 ± 5%
[2]; Dimethylformamide (DMF) 5% (v/v)
  Relative enzymatic activity (%): 120 ± 11%
[2]; Methanol 10% (v/v)
  Relative enzymatic activity (%): 87 ± 10%
[2]; Methanol 20% (v/v)
  Relative enzymatic activity (%): 60 ± 13%
[3]; 1 h
  Residual ochratoxin A (%): 6%
[3]; 4 h
  Residual ochratoxin A (%): 0%
[3]; 24 h
  Residual ochratoxin A (%): 0%
[3]; after 4 hours
  Ochratoxin A degraded: 100%
[3]; per 1 U of enzyme (pNP standard test) and hour at 37° C.
  Ochratoxin A Degradation per U and h: 3 µmol
[4]
  Relative activity, pNP-acetate (C2): 9 ± 1%
  Relative activity, pNP-butyrate (C4): 75 ± 8%
  Relative activity, pNP-caprylate (C8): 100* %
  Relative activity, pNP-decanoate (C10): 72 ± 2%
  Relative activity, pNP-myristate (C14): 46 ± 8%
  Relative activity, pNP-palmitate (C16): 49 ± 6%
[5]
  activity of crude culture supernatant: 0.5 U/mL
[6]; pNP-palmitate
  Enzymatic activity of the purified variant: 174 ± 11 U/mg
[6]; towards pNP-palmitate (standard assay)
  Spec. Act. (U/mg): 174 ± 11 U/mg
Temperature optimum
  Temp. opt. (° C.): 45 °C
Temperature optimum; 20 ° C.
  Relative activity at temperature: 50 ± 2%
Temperature optimum; 25 ° C.
  Relative activity at temperature: 61 ± 2%
Temperature optimum; 30 ° C.
  Relative activity at temperature: 69 ± 2%
Temperature optimum; 35 ° C.
  Relative activity at temperature: 78 ± 1%
Temperature optimum; 40 ° C.
  Relative activity at temperature: 87 ± 2%
Temperature optimum; 45 ° C.
  Relative activity at temperature: 100* %
Temperature optimum; 50 ° C.
  Relative activity at temperature: 81 ± 10%
Temperature optimum; 55 ° C.
  Relative activity at temperature: 37 ± 5%
Temperature optimum; 60 ° C.
  Relative activity at temperature: 9 ± 1%
